How the values were obtained:
[1] = molecular target: T1, αIIbβ3 integrin of rabbit platelets in aorta (Oryctolagus cuniculus, New Zealand, UniProt Q9TUN4;Q9TUN3); assay: immunostaining of cells or tissue; paraffin sections of atherosclerotic arteries of mouse, rabbit and human; scFv 20-40 μg/ml overnight at 4°C; detected with HRP anti-6His and DAB; settings: one partner purified
T1 construct: integrin αIIb (CD41), rabbit, endogenous in aorta tissue; integrin β3, rabbit, endogenous in aorta tissue; In the ELISA the integrin stood within solubilised aorta proteins (T-PER or HSB lysis buffer), not on cells; also called atheromatous proteins; healthy aorta proteins; source: endogenous, New Zealand rabbit aorta (paraffin sections; soluble protein extracts of atheromatous and healthy aorta)

[2] = molecular target: T2, αIIbβ3 integrin on murine platelets in atherosclerotic aorta sections (Mus musculus, ApoE-/-, UniProt Q9QUM0;O54890); assay: as above; settings: one partner purified
T2 construct: integrin αIIb (CD41), mouse, on platelets in tissue; integrin β3, mouse, on platelets in tissue; source: endogenous, paraffin sections of aorta of ApoE-/- mice
T2 sequence (Q9QUM0 32-1033, chain 1 of 2): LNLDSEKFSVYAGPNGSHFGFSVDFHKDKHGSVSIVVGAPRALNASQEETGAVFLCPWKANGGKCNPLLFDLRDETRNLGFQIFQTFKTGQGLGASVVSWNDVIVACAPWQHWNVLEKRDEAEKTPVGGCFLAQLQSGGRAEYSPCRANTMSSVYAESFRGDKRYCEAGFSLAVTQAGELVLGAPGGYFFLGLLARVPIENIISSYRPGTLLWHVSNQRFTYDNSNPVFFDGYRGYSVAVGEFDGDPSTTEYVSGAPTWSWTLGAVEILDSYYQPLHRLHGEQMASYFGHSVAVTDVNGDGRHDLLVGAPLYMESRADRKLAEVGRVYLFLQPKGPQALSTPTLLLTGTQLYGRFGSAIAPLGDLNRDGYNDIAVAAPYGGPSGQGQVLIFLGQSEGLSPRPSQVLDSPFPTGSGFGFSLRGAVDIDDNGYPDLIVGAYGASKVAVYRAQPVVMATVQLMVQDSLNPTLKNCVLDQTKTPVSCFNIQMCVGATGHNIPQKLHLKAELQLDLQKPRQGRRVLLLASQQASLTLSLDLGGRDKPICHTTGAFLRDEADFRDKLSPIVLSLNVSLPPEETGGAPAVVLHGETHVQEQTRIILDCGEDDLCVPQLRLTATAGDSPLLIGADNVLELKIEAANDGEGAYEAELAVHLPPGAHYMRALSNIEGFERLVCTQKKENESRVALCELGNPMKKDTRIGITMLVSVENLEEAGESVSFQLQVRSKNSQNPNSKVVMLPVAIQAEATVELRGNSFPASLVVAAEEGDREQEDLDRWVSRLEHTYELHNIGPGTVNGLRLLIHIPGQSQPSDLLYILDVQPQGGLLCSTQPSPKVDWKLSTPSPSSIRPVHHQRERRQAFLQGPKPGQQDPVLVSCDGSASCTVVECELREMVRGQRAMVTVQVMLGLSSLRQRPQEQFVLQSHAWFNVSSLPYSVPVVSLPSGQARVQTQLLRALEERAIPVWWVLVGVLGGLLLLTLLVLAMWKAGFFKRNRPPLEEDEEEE
T2 sequence (O54890 26-787, chain 2 of 2): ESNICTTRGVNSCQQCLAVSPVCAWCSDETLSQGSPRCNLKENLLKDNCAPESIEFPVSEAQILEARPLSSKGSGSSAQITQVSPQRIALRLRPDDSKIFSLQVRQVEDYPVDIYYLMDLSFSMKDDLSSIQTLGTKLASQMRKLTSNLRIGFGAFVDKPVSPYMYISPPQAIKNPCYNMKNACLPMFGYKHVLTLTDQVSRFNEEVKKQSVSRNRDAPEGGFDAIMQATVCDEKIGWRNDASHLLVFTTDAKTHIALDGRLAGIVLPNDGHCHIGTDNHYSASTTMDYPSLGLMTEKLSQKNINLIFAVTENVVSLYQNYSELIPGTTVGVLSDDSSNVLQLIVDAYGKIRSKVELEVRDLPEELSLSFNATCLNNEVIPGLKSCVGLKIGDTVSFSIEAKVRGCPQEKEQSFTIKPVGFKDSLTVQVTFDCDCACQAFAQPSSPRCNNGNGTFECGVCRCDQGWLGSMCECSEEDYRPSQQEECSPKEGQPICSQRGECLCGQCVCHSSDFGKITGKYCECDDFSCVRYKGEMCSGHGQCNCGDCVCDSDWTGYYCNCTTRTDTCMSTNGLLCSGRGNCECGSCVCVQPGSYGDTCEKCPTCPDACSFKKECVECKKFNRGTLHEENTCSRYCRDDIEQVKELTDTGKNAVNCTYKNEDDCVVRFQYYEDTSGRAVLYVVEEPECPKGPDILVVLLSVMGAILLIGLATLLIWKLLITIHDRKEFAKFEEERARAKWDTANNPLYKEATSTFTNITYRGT

[3] = molecular target: T3, αIIbβ3 integrin on human platelets (Homo sapiens, UniProt P08514;P05106); assay: flow cytometry on cells; washed human platelets activated with 0.5 U/ml thrombin, PFA-fixed; 25 μg/mL TEG4-2c scFv overnight at 4°C; detected with Alexa Fluor 488 anti-6His; settings: one partner purified
T3 construct: integrin αIIb (CD41), human, on platelets; integrin β3, human, on platelets; the state is told by the assay; also called A-PL; NA-PL; source: endogenous, human platelets (washed platelets and platelet-rich plasma from healthy donors; platelets in human coronary artery sections)
T3 sequence (P08514 32-1039, chain 1 of 2): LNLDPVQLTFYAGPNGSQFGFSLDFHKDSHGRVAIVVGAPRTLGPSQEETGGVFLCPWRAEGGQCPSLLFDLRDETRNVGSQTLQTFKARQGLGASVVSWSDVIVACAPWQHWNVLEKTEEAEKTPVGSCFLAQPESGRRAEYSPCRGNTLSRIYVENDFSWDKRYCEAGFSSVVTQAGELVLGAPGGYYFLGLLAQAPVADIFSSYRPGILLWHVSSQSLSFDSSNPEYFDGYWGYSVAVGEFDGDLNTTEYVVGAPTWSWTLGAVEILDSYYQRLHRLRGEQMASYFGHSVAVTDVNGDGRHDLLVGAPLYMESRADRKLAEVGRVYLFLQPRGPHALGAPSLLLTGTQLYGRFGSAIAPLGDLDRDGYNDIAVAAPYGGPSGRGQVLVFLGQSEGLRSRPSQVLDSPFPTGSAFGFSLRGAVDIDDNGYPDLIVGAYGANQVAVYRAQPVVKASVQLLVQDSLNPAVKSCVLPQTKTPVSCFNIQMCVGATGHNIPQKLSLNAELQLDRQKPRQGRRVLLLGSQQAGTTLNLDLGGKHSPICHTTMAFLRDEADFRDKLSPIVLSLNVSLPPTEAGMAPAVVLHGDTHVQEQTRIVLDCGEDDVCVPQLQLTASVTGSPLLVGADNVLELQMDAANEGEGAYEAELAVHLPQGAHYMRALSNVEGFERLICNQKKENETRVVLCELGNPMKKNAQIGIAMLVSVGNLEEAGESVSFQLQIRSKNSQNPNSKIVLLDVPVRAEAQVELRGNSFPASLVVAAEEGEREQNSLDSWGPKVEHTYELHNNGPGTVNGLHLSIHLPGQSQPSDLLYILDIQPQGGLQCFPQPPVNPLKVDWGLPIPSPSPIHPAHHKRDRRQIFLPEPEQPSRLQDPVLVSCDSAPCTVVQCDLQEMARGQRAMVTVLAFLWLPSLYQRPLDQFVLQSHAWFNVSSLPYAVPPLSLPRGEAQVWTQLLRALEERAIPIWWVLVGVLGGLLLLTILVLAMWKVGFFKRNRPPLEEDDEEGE
T3 sequence (P05106 27-788, chain 2 of 2): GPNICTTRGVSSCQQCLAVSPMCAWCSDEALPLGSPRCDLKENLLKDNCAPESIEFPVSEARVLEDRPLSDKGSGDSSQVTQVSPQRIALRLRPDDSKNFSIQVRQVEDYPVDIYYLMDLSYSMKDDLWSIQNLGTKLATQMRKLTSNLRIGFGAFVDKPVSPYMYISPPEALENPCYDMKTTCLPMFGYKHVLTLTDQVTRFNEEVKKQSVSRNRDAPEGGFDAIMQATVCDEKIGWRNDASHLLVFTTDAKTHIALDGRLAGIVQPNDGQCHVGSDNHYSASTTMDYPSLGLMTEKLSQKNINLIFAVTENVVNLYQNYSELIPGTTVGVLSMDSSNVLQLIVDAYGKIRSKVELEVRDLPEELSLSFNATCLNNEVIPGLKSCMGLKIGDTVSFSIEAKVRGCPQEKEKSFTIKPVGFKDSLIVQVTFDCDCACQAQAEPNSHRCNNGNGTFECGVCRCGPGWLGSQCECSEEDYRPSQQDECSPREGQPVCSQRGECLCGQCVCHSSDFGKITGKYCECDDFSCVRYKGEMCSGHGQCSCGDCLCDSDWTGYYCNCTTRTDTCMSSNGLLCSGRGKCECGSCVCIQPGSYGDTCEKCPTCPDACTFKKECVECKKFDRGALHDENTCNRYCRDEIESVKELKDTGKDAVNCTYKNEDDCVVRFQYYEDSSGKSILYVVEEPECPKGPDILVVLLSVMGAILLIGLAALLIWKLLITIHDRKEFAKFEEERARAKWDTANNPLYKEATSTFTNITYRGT

[4] = molecular target: T4, αIIbβ3 integrin on lyophilized platelets (Homo sapiens (assumed), UniProt P08514;P05106); assay: BLI; Octet Red96; TEG4-2c scFv loaded on HIS2 (anti-penta-His) sensor at 21 μg/mL; platelets 5x10^5 to 5x10^8/mL (αIIbβ3 42 pM to 42 nM) as analyte; platelet buffer; settings: one partner purified
T4 construct: integrin αIIb (CD41) on lyophilized platelets; integrin β3 on lyophilized platelets; Platelet concentrations were converted into αIIbβ3 molarities with 50 000 αIIbβ3 per platelet; also called whole platelets; blood platelets; source: bought: lyophilized platelets, Helena Biosciences Europe, resuspended
T4 sequence (P08514 32-1039, chain 1 of 2): as the sequence (P08514 32-1039, chain 1 of 2) above
T4 sequence (P05106 27-788, chain 2 of 2): as the sequence (P05106 27-788, chain 2 of 2) above

[5] = molecular target: T5, purified αIIbβ3 integrin (Homo sapiens (assumed), UniProt P08514;P05106); assay: SPR; Biacore 3000; αIIbβ3 amine-coupled on CM5 (about 8000 RU); scFv injected at 94, 188 and 390 nM; HBS-EP with 2 mM Ca2+; 20 μL/min; settings: both partners purified
T5 construct: integrin αIIb (CD41) subunit of purified αIIbβ3; integrin β3 subunit of purified αIIbβ3; probably from human platelets (surmise); also called integrin αIIbβ3; source: bought: Kordia Life Sciences
T5 sequence (P08514 32-1039, chain 1 of 2): as the sequence (P08514 32-1039, chain 1 of 2) above
T5 sequence (P05106 27-718, chain 2 of 2): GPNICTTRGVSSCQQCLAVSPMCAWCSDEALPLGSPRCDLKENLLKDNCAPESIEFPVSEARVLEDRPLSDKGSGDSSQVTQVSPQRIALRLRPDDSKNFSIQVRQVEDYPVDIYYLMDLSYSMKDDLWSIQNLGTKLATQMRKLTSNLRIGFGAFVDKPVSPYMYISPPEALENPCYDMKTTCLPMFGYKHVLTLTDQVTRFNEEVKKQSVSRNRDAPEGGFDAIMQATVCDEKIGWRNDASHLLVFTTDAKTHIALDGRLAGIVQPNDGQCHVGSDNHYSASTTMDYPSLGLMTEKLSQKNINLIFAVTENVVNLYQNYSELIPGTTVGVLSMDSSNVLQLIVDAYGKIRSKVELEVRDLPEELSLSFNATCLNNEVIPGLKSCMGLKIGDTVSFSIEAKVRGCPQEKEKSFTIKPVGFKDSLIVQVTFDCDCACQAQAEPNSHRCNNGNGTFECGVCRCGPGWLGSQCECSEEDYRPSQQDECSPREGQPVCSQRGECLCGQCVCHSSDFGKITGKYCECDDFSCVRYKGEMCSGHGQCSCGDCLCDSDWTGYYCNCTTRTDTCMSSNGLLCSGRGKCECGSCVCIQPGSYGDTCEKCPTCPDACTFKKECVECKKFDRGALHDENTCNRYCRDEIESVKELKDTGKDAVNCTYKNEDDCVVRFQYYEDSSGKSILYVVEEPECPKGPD

Measured: binding result

B1: TEG4-2c scFv (recombinant human anti-αIIbβ3 single-chain variable fragment with 6His-Gly-Cys-Cys C-terminus) (scFv, V domains shown)
VH: QVQLVESGGGVVQPGRSLRLSCAASGFTFSSYAMHWVRQAPGKGLEWVAVISYDGSNKYYADSVKGRFTISRDNSKNTLYLQMNSLRAEDTAVYYCARKSYFDYWGQGTLVTVSS
VL: VSELTQPASVSGSPGQSITISCTGTSSDVGGYNYVSWYQQHPGKAPKLMIYEVSNRPSGVSNRFSGSKSGNTASLTISGLQAEDEADYYCSSYTSSSTLVVFGGGTKLTVL
notes: Gly-Cys-Cys added after the 6His tag at the very C-terminus (printed in three-letter code as 'Gly-Cyc-Cys'), for site-specific grafting; Order at the C-terminus: scFv, c-myc tag, 6His, Gly-Cys-Cys; Purified fractions are said to hold monomers and dimers; also called scFv TEG4-2c; anti-αIIbβ3 TEG4-2c scFv; source: Pichia pastoris X33, secreted into the supernatant, purified (IMAC HisTrap excel, …)
binds: all assays above
